In assay [1] the target is SARS-CoV-2 nucleocapsid (N) protein, recombinant, residues 1-419 (SARS-CoV-2, UniProt P0DTC9 1-419).
Assay [2] concerns the target T1, truncated N-terminal domain (NTD) of SARS-CoV-2 N protein (SARS-CoV-2, UniProt P0DTC9 44-180).
T1 construct: domain: N-terminal domain (NTD)
Briefly: BLI, BA-MBP-Sso.E1 on streptavidin probes. In general terms: BLI is a label-free optical method that tracks binding on a fibre tip over time.

In assay [3] the target is T2, truncated C-terminal domain (CTD) of SARS-CoV-2 N protein (SARS-CoV-2, UniProt P0DTC9 247-364).
T2 construct: domain: C-terminal domain (CTD)
The assay can be described thus: BLI, BA-MBP-Sso.E2 on streptavidin probes.

B1: Sso.E1 (rcSso7d binder against SARS-CoV-2 N protein) (designed binder)
chain: MATVKFTYQGEEKQVDISKIKIVRRGGQWISFWYDEGGGAYGAGYVSEKDAPKELLQMLEKQ
As for B1, the Kd in assay [1] came to 3.2 nM.

B2: BA-MBP-Sso.E1 (Sso.E1 fused to biotin and maltose binding protein) (designed binder, not shown: small tags and cut ends; large carriers)
chain: MATVKFTYQGEEKQVDISKIKIVRRGGQWISFWYDEGGGAYGAGYVSEKDAPKELLQMLEKQ
notes: also called reporter reagent
As for B2, the binding result in assay [2] was “no binding”.

B3: Sso.E2 (rcSso7d binder against SARS-CoV-2 N protein) (designed binder)
chain: MATVKFTYQGEEKQVDISKIKNVGRWGQIIDFDYDEGGGAIGIGAVSEKDAPKELLQMLEKQ
As to B3, in assay [1], the dissociation constant (Kd) worked out at 4.2 nM.

B4: BA-MBP-Sso.E2 (Sso.E2 fused to biotin and maltose binding protein) (designed binder)
chain: MATVKFTYQGEEKQVDISKIKNVGRWGQIIDFDYDEGGGAIGIGAVSEKDAPKELLQMLEKQ
As for B4, in assay [3], the binding result is “no binding”.

For orientation: Kd means a measure of binding affinity in units of concentration.

Values taken from patent publication US20230375531A1 (MIT, published 2023).
